Test results as given in patent US7829528B2, “Compositions and methods for treating STAT-6 associated diseases or conditions” (The Rockefeller University, priority 2004, dated 2010).
Where a SMILES comes first, the peptide text is derived from it. Where no end group is shown, it is not given here. [ ]: non-standard residue; d: D form. pY = N[C@@H](Cc1ccc(OP(=O)(O)O)cc1)C(=O)O

What was measured:
[1] = test system: murine splenocytes; assay: Uptake of FITC-conjugated PTD4 peptide by splenocytes (flow cytometry); type: cell-based; settings: for Percent Maximum (±SEM), peptide uptake: FITC-PTD4 100 μM, normalized to 100%
Method: The ability of the PTD4 protein transduction domain to enter cells was confirmed by incubating murine splenocytes with FITC-conjugated PTD4 peptide (FITC-PTD4). Splenocytes were incubated with FITC-PTD4 for various times (30 minutes to 24 hours), subsequently washed and incubated with trypsin to remove surface bound peptide, and analyzed by flow cytometry. Data was normalized to 100%. Half-maximal peptide uptake occurred at 1 hour and plateaued after 4-6 hours (Table 1).
To monitor peptide uptake, splenocytes in Dulbecco's Modified Eagle Medium (DMEM)/10% fetal bovine serum (FBS) were incubated continuously with FITC-conjugated PTD4 peptide (100 μM) for 30 minutes to 24 hours. At each time point, surface bound peptide was removed by washing cells twice with phosphate-buffered saline (PBS) and then incubating cells with trypsin for five minutes. Ten thousand cells were subsequently analyzed by flow cytometry. To monitor the half-life of intracellular peptide (in the absence of uptake), splenocytes in DMEM/10% FBS were incubated with FITC-conjugated PTD4 peptide (100 μM) for four hours, after which they were washed twice with PBS and incubated with trypsin for five minutes. Splenocytes were returned to DMEM/10% FBS and intracellular localization of peptide monitored over time by flow cytometry.

[2] = test system: murine splenocytes; type: cell-based; settings: mouse
Method: (§1) To determine the half-life of the intracellular PTD4 peptide in the absence of further uptake, splenocytes were incubated with the FITC-PTD4 peptide for 4 hours, washed and trypsinized, and placed back into complete medium after which intracellular localization of the peptide was monitored over time by flow cytometry. […] To monitor stability of the murine-specific PTD4-STAT-6 peptide (STAT-6-IP; Tyr-Ala-Arg-Ala-Ala-Ala-Arg-Gln-Ala-Arg-Ala-Gly-Arg-Gly-Tyr*-Val-Ser-Thr-Thr; SEQ ID NO:7) in murine splenocytes, cells were incubated with the STAT-6-IP for four hours, after which they were washed and trypsinized. The presence of intracellular STAT-6-IP was monitored by western blot analysis of cell lysates harvested at different time points and resolved by SDS-PAGE. The STAT-6-IP was visualized using anti-phosphoSTAT-6 antibody and data normalized to 100% (Table 2).
To monitor peptide uptake, splenocytes in Dulbecco's Modified Eagle Medium (DMEM)/10% fetal bovine serum (FBS) were incubated continuously with FITC-conjugated PTD4 peptide (100 μM) for 30 minutes to 24 hours. […] Ten thousand cells were subsequently analyzed by flow cytometry. […] Splenocytes were returned to DMEM/10% FBS and intracellular localization of peptide monitored over time by flow cytometry.

[3] = Stability of intracellular STAT-6-IP in splenocytes (western blot, anti-phosphoSTAT-6 antibody); type: cell-based, murine; settings: mouse, murine splenocytes (intracellular peptide after loading); 4 hours loading at 100 μM, washed, trypsinized
Method: as §1
(§2) To monitor stability of the STAT-6-IP in murine splenocytes, cells in DMEM/10% FBS were incubated with the STAT-6-IP (100 μM) for four hours, after which they were washed twice with PBS and trypsinized. Splenocytes were then incubated with soybean trypsin inhibitor (0.5 mg/mL in 10 mM sodium tetraborate) for 5 minutes. The cells were washed again once in PBS and subsequently placed back into complete medium. At different time points, cells were harvested and lysed in tricine sample buffer (100 mM Tris-HCl, pH 6.8, 24% glycerol, 8% SDS, 200 mM DTT). Lysates were clarified and equal concentrations (20 μg/lane) resolved by SDS-PAGE on 18% tris-tricine gels, after which proteins were transferred to PVDF membrane. For western immunoblot analysis, membranes were blocked for one hour in TBST (10 mM Tris-Cl pH 7.4, 2.5 mM EDTA, 150 mM NaCl, 0.1% TWEEN™-20) containing 0.25% gelatin (bloom 275) at room temperature. Blots were incubated with anti-phosphoSTAT-6 antibodies overnight at 4° C. followed by horseradish peroxidase-conjugated bovine anti-rabbit secondary antibody for one hour. Immunoreactive bands were detected by enhanced chemiluminescence, ECLT™ (Amersham Life Sciences, San Francisco, Calif.), visualized and quantified on a FLUORCHEM™ 8000 Imaging System using ALPHAEASE™ software (Alpha Innotech, San Leandro, Calif.).

[4] = test system: murine splenocytes; assay: as above; type: cell-based; settings: for Percent Maximum (±STD), intracellular STAT-6-IP: normalized to 100%
Method: as §1, §2

Row | half-life at 100 μM [3] [h] | Percent Maximum (±STD), intracellular STAT-6-IP ([4]; 0.5 hours after 4 hours loading at 100 μM) [%] | Percent Maximum (±STD), intracellular STAT-6-IP ([4]; 1.0 hours after 4 hours loading at 100 μM) [%] | Percent Maximum (±STD), intracellular STAT-6-IP ([4]; 4.0 hours after 4 hours loading at 100 μM) [%] | Time peptide remained in the cells ([4]; 4 hours loading at 100 μM, washed, trypsinized) | Percent Maximum (±STD), intracellular STAT-6-IP ([4]; 6.0 hours after 4 hours loading at 100 μM) [%] | Percent Maximum (±STD), intracellular STAT-6-IP ([4]; 8.0 hours after 4 hours loading at 100 μM) [%] | Percent Maximum (±STD), intracellular STAT-6-IP ([4]; 24.0 hours after 4 hours loading at 100 μM) [%] | Molecule | Percent Maximum (±SEM), peptide uptake ([1]; 0 hours) [%] | Percent Maximum (±SEM), peptide uptake ([1]; 0.5 hours) [%] | Percent Maximum (±SEM), peptide uptake ([1]; 1.0 hours) [%] | Percent Maximum (±SEM), peptide uptake ([1]; 2.0 hours) [%] | Percent Maximum (±SEM), peptide uptake ([1]; 4.0 hours) [%] | Percent Maximum (±SEM), peptide uptake ([1]; 6.0 hours) [%] | Percent Maximum (±SEM), peptide uptake ([1]; 24.0 hours) [%] | Time after which peptide uptake plateaued ([1]; continuous incubation, 100 μM) [h] | Time of half-maximal peptide uptake ([1]; continuous incubation, 100 μM) [h] | Half-life of intracellular peptide [2]
1 |  |  |  |  |  |  |  |  | FITC-PTD4: FITC-conjugated PTD4 protein transduction domain peptide (PTD4: Tyr-Ala-Arg-Ala-Ala-Ala-Arg-Gln-Ala-Arg-Ala; SEQ ID NO:6) (YARAAARQARA; not fully specified (N-terminus); printed as Tyr-Ala-Arg-Ala-Ala-Ala-Arg-Gln-Ala-Arg-Ala; also: FITC label, position not given here) | 4.16 ± 0.53 | 31.2 ± 4.35 | 46.57 ± 6.63 | 69.70 ± 8.60 | 72.86 ± 8.51 | 76.71 ± 7.58 | 78.49 ± 14.11 | 4 to 6 | 1 | approximately four
2 | ~8 | 100.00 ± 0.00 | 93.69 ± 17.14 | 68.33 ± 17.42 | up to 24 hours | 66.56 ± 15.04 | 46.47 ± 15.98 | 38.50 ± 51.74 | CC(C)[C@H](NC(=O)[C@H](Cc1ccc(OP(=O)(O)O)cc1)NC(=O)CNC(=O)[C@H](CCCNC(=N)N)NC(=O)CNC(=O)[C@H](C)NC(=O)[C@H](CCCNC(=N)N)NC(=O)[C@H](C)NC(=O)[C@H](CCC(N)=O)NC(=O)[C@H](CCCNC(=N)N)NC(=O)[C@H](C)NC(=O)[C@H](C)NC(=O)[C@H](C)NC(=O)[C@H](CCCNC(=N)N)NC(=O)[C@H](C)NC(=O)[C@@H](N)Cc1ccc(O)cc1)C(=O)N[C@@H](CO)C(=O)N[C@H](C(=O)N[C@H](C(=O)O)[C@@H](C)O)[C@@H](C)O [STAT-6-IP, Tyr-Ala-Arg-Ala-Ala-Ala-Arg-Gln-Ala-Arg-Ala-Gly-Arg-Gly-Tyr*-Val-Ser-Thr-Thr] (H-YARAAARQARAGRG[pY]VSTT-OH; N-terminus and C-terminus assumed) |  |  |  |  |  |  |  |  |  | 
